In paper PMC4747346, “Interaction of RECQ4 and MCM10 is important for efficient DNA replication origin firing in human cells” (Oncotarget, 2015):

Biological target: T1, HIS-RECQ4 (full length, recombinant) (human, UniProt O94761 1-1208)
T1 construct: RECQ4; full length construct, a gift from Dr Yilun Liu; the construct itself is not described; also called H-R4; source: E. coli Rosetta pLysS, purified (HQ sepharose flow-through, PEI, HiTrap HP with imidazole, FLAG M2 beads)
T1 sequence (looked up): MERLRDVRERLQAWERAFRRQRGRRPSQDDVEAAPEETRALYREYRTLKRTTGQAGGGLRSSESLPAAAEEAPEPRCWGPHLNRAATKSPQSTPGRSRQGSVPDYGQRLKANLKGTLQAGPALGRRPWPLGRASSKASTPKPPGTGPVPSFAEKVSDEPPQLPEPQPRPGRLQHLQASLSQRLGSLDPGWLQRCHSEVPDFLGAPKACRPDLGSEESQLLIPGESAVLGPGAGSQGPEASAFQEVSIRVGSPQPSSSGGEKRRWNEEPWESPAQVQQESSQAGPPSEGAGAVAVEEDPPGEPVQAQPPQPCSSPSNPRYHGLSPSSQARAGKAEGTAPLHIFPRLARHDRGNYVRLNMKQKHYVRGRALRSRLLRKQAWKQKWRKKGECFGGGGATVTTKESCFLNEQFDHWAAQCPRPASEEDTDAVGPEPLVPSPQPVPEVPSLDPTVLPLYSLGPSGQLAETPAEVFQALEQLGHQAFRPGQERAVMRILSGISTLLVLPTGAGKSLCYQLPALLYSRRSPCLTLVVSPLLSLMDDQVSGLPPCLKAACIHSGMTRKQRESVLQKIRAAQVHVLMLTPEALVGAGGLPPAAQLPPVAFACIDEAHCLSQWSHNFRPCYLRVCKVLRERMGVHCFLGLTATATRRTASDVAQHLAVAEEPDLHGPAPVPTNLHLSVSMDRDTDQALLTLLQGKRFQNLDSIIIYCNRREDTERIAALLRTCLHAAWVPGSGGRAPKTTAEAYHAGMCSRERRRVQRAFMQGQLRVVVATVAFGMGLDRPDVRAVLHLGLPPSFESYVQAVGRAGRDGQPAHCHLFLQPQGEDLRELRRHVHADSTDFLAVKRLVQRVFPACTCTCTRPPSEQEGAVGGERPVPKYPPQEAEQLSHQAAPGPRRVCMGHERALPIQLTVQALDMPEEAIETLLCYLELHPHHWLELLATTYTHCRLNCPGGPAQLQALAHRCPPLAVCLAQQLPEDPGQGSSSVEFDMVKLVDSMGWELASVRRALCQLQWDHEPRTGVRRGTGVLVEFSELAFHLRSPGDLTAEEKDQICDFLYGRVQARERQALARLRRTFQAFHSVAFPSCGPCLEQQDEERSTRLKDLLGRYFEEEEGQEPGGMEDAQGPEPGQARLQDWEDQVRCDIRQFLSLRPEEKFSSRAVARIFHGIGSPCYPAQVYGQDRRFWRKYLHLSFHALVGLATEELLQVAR
Test: SPR; BIAcore T100, 25°C; GST-MCM10 amine-coupled to a CM3 chip (500 response units); RECQ4 as analyte at 1, 0.5, 0.25, 0.125, 0.06 and 0.03 μM; flow 30 and 60 μl/min; HBS buffer (10 mM HEPES pH 7.4, 150 mM NaCl, 0.5 mM TCEP, 0.05% Tween20); global fit to a two state model
Conditions: both partners purified

Kd: 170 ± 200 nM
B1: GST-MCM10 (natural protein, human, UniProt Q7L590 1-875, looked up)
chain: MDEEEDNLSLLTALLEENESALDCNSEENNFLTRENGEPDAFDELFDADGDGESYTEEADDGETGETRDEKENLATLFGDMEDLTDEEEVPASQSTENRVLPAPAPRREKTNEELQEELRNLQEQMKALQEQLKVTTIKQTASPARLQKSPVEKSPRPPLKERRVQRIQESTCFSAELDVPALPRTKRVARTPKASPPDPKSSSSRMTSAPSQPLQTISRNKPSGITRGQIVGTPGSSGETTQPICVEAFSGLRLRRPRVSSTEMNKKMTGRKLIRLSQIKEKMAREKLEEIDWVTFGVILKKVTPQSVNSGKTFSIWKLNDLRDLTQCVSLFLFGEVHKALWKTEQGTVVGILNANPMKPKDGSEEVCLSIDHPQKVLIMGEALDLGTCKAKKKNGEPCTQTVNLRDCEYCQYHVQAQYKKLSAKRADLQSTFSGGRIPKKFARRGTSLKERLCQDGFYYGGVSSASYAASIAAAVAPKKKIQTTLSNLVVKGTNLIIQETRQKLGIPQKSLSCSEEFKELMDLPTCGARNLKQHLAKATASGIMGSPKPAIKSISASALLKQQKQRMLEMRRRKSEEIQKRFLQSSSEVESPAVPSSSRQPPAQPPRTGSEFPRLEGAPATMTPKLGRGVLEGDDVLFYDESPPPRPKLSALAEAKKLAAITKLRAKGQVLTKTNPNSIKKKQKDPQDILEVKERVEKNTMFSSQAEDELEPARKKRREQLAYLESEEFQKILKAKSKHTGILKEAEAEMQERYFEPLVKKEQMEEKMRNIREVKCRVVTCKTCAYTHFKLLETCVSEQHEYHWHDGVKRFFKCPCGNRSISLDRLPNKHCSNCGLYKWERDGMLKEKTGPKIGGETLLPRGEEHAKFLNSLK
notes: MCM10, human; construct pGEX-4T-1-MCM10, a gift from Dr. Yilun Liu; also called G-M10; pGEX-4T-1-MCM10; source: E. coli, purified on GSH beads (kept on the beads for pull-downs; eluted with reduced glutathione for the peptide array)
